Laboratory results as given in US5817516, “Methods for proliferating and differentiating B cells with high density membrane CD40 ligand” (Boehringer Ingelheim Pharmaceuticals, Inc., dated 1998).

Biological target: CD40 on human B cells (human, UniProt P25942)
Test: cell-based or functional assay

- expansion of human B cells grown with hdmb CD40 ligand as described for the mouse cells: ~100 fold
B1: high density, membrane bound mouse CD40 ligand (ligand)
chain: MIETYSQPSPRSVATGLPASMKIFMYLLTVFLITQMIGSVLFAVYLHRRLDKVEEEVNLHEDFVFIKKLKRCNKGEGSLSLLNCEEMRRQFEDLVKDITLNKEEKKENSFEMQRGDEDPQIAAHVVSEANSNAASVLQWAKKGYYTMKSNLVMLENGKQLTVKREGLYYVYTQVTFCSNREPSSQRPFIVGLWLKPSSGSERILLKAANTHSSSQLCEQQSVHLGGVFELQAGASVFVNVTEASQVIHRVGFSSFGLLKL
